Reference: patent US20180312587A1 (ADURO BIOTECH HOLDINGS EUROPE B V, published 2018)

Legend:
[1] = biological target: T1, hSIRPβ1 transcript variant 3/hSIRPβL (human, UniProt Q5TFQ8 30-398); test: CELISA, CHO-K1 transfectants; average of two experiments
T1 construct: also called human SIRPβL
Experimental: The binding specificity of antibodies hSIRPα.40A and hSIRPα.50A to hSIRPα were compared in a CELISA format. In short, CHO-K1 cells were transiently transfected with hSIRPαV1, hSIRPαV2, hSIRPβ1, hSIRPβL, and hSIRPγ cDNAs. Subsequently, hSIRPα binding was assessed by CELISA using CHO-K1.hSIRPαV1, CHO-K1.hSIRPαV2, CHO-K1.hSIRPβ1, CHO-K1.hSIRPβL, and CHO-K1.hSIRPγ cells. Detection of bound antibody was done with goat-anti-mouse IgG-HRP (Southern Biotech).

[2] = biological target: T2, hSIRPα expressed on primary human cells (human, UniProt P78324 31-504); test: flow cytometry on primary human granulocytes, FITC goat-anti-mouse Ig
T2 construct: whole, on cells; also called hSIRPα on primary human CD14+ monocytes; on primary human granulocytes
Experimental: To confirm the functionality of hSIRPα.50A in primary immune cells, granulocytes (e.g. effector cells) were isolated from healthy human donor EDTA blood. First, the EDTA blood of each donor was pooled and centrifuged at 300 g for 6 minutes at 20° C. Next, plasma was removed by aspiration, and the remaining blood cells were gently resuspended. Cells were recovered in red blood cell (RBC) lysis buffer (155 mM NH4Cl; 10 mM KHCO3) and incubated for 10 minutes on ice. Next, cells were centrifuged at 300 g for 7 minutes. Supernatants containing lysed RBCs were removed by aspiration, and the remaining blood cells were gently resuspended in RBC lysis buffer and kept on ice for 1 minute. […] The percentage of granulocytes present in the cell suspension was determined by flow cytometry on the FACSCanto II (BD Biosciences) based on high forward scatter (FSC) and side scatter (SSC). Binding of hSIRPα.50A to human granulocytes was assessed by incubating the cells for 30 minutes at 4° C. with hSIRPα.50A antibody (25 μg/mL and dilutions thereof) in PBS/1% BSA containing 10% autologous serum (PBS/1% BSA/10% serum). […] After this labeling procedure, cells were washed two times, resuspended in PBS/1% BSA/10% serum and analysed by flow cytometry on the FACSCanto II (BD Biosciences). Data were processed and analysed with FlowJo V10 software (FlowJo, LLC).

human SIRPα variant 1 = biological target: T3, human SIRPα variant 1 (human, UniProt P78324 31-504); test: CELISA, CHO-K1 transfectants; average of two experiments
T3 construct: full length ORF on transfected CHO-K1 or HEK293 cells; entry includes the signal peptide; also called hSIRPαV1; SIRPαV1
Experimental: (§1) Binding of the humanized antibodies to hSIRPα was studied in CELISA format. Binding of the hSIRPα antibodies to human SIRPαV1, SIRPαV2, hSIRPβ1, and hSIRPγ was confirmed using CHO-K1 cells that had been transiently transfected with cDNA encoding the full length open reading frame of each of these respective targets subcloned into the pCI-neo vector. CHO-K1.hSIRPαV1, CHO-K1.hSIRPαV2, CHO-K1.hSIRPβ1, and CHO-K1.hSIRPγ cells were seeded in culture medium (DMEM-F12 (Gibco) supplemented with 5% New Born Calf Serum (BioWest) and Pen/Strep (Gibco)) in 96-well flat-bottom tissue culture plates and incubated at 37° C., 5% CO₂ and 95% humidity until cell layers were confluent. Subsequently, culture medium was removed and cells were incubated for 1 hour at 37° C., 5% CO₂ and 95% humidity with purified hSIRPα antibodies (10 μg/mL and dilutions thereof). Next, cells were washed with PBS-T and incubated for 1 hour at 37° C., 5% CO₂ and 95% humidity with goat-anti-human IgG-HRP conjugate (Jackson Immuno Research) or goat-anti-mouse IgG-HRP (Southern Biotech). Subsequently, cells were washed three times with PBS-T and anti-hSIRPα immunoreactivity was visualized with TMB Stabilized Chromogen (Invitrogen). Reactions were stopped with 0.5 M H₂SO₄ and absorbances were read at 450 and 610 nm. […] In Table 13 the EC50 values of the humanized hSIRPα antibodies are depicted.
(§2) Table 13: Binding of humanized and parental hSIRPα.50A antibodies to CHO-K1.hSIRPαV1, CHO-K1.hSIRPαV2, CHO-K1.hSIRPβ1, and CHO-K1.hSIRPγ cells.

human SIRPα variant 2 = biological target: T4, human SIRPα variant 2 (human, UniProt P78324 31-504); test: as above
T4 construct: full length ORF on transfected CHO-K1 cells; also called hSIRPαV2; SIRPαV2
Experimental: as §1, §2

T1 sequence (Q5TFQ8 30-398 limits assumed, change not shown): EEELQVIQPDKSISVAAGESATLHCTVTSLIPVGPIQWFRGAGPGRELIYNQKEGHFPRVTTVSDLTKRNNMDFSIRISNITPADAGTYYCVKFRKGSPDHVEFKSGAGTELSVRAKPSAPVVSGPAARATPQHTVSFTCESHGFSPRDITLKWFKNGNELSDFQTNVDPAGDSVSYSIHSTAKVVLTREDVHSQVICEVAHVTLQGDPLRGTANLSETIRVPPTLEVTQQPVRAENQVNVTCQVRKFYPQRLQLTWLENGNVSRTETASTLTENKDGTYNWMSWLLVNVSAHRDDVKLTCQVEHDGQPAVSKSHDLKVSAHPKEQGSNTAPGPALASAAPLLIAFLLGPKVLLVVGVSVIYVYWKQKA
T4 sequence (P78324 other isoform, or with tags, fused parts or gaps mutant limits assumed): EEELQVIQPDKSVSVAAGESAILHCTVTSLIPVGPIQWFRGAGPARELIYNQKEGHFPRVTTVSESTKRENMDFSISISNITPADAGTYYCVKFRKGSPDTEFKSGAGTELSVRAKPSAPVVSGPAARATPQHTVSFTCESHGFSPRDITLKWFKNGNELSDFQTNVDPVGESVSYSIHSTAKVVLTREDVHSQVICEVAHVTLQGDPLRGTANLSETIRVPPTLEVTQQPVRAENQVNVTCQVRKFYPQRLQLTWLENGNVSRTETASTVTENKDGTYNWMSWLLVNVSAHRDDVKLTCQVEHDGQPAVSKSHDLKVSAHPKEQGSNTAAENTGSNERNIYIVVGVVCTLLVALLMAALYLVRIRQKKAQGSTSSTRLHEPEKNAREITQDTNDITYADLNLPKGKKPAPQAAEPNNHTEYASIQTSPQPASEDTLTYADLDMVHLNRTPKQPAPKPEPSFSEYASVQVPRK
T3 sequence (P78324 31-504 limits assumed, change not shown): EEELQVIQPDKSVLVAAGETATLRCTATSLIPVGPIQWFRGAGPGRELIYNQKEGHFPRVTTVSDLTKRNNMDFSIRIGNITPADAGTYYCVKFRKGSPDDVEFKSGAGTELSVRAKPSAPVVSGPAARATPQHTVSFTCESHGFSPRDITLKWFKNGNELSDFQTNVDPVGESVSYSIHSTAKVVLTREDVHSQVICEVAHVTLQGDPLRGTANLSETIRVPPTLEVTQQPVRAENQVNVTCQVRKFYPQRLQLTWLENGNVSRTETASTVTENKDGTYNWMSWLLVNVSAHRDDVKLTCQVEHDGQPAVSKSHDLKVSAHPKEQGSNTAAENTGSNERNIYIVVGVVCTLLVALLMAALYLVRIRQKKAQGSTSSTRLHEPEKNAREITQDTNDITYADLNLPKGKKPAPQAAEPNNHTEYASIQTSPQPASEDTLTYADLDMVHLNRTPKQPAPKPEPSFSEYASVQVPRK
T2 sequence (P78324 31-504): as the sequence (P78324 31-504 limits assumed, change not shown) above

B1: hSIRPα.50A (antibody, V domains shown)
VH: QVQLQQSGPELVKPGASVRISCKASGFTFTNYYIHWVKQRPGQGLEWIGWIYPGNVNTKYNEKFKAKATLTADKSSTTAYMQLSSLASEDSAVYFCARPTIIATDFDVWGAGTTVTVSS
VL: DIVMTQSHKFMSTSVGDRVNITCKASQGVGTAVGWYQQKPGQSPRLLIYWASTRHTGVPDRFTGSGSGTDFSLAISNVQSEDLADYFCQQYSTYPFTFGGGTNLEIK
notes: light chain constant domain not tied; also called mouse hSIRPα.50A; hSIRPα.50A.mIgG1
EC50 [1]: 0.632 nM
EC50 (read off the curve) [2]: ~3 nM
EC50 (human SIRPα variant 1): 1.36 nM
EC50 (human SIRPα variant 2): 1.3 nM
